Among the data in US20120276098A1, “DRUG FUSIONS AND CONJUGATES WITH EXTENDED HALF LIFE” (priority 2009, published 2012) are EC50 and Kd values, retold here.

Where two headings read alike, the source gives them in different places.

One series has as its target GLP1R (Homo sapiens, UniProt P43220). Description: GLP-1 receptor binding assay (GLP-1R BA), CHO 6CRE GLP1R luciferase reporter cells. The series is classed as cell-based. Set-up: expressed in transfected cells; host or cells: CHO K1 (CHO 6CRE GLP1R cells). The procedure:
Fusions were buffer exchanged into 100 mM […], 20 mM citrate pH 6.2. Meanwhile,CHO 6CRE GLP1R cells (CHO K1 cells (obtainable from the American Type Tissue Collection, ATCC) stably transfected with 6 cAMP response element driving a luciferase reporter gene and also with the human GLP-1 receptor) were seeded at 2×10^5cells/mL in suspension media. Suspension culture was maintained for 24 hours. Cells were then diluted into 15 mM HEPES buffer (obtainable from Sigma), containing 2 mM L glutamine (2.5×10^5 cells/ml) and dispensed into 384-well plates containing 10 ul/well of the compound to be assayed. After the addition of assay control, plates were returned to the incubator for 3 h at 37° C. and 5% CO2. […] Plates were placed in the reader (Viewlux, Perkin Elmer) and pre-incubated for 5 minutes prior to reading the […] and plotting of results. Compound was assayed at a range of concentrations in the presence and absence of 10 uM albumin, allowing a dose response curve to be fitted with and without the albumin.

In series [1] the target is Human serum albumin (HSA) (Homo sapiens, UniProt P02768). The series is classed as binding. The procedure:
(§1) The analysis was performed using a CM5 Biacore chip (carboxymethylated dextran matrix) that was coated with serum albumin. About 1000 resonance units (RUs) of each serum albumin to be tested (human, rat and mouse serum albumin) was immobilised in acetate buffer pH 5.5. Flow cell 1 of the Biocore AB was an uncoated, blocked negative control, flow cell 2 was coated with Human serum albumin (HSA) (815 RUs) flow cell 3 was coated with Rat serum albumin (RSA)(826RUs) and flow cell 4 was coated with Mouse serum albumin (MSA) (938 RUs). Each fusion molecule tested was expressed in mammalian tissue culture as described in the example above.
(§2) A range of concentrations of the fusion molecule were prepared (in the range 16 nM to 2 μM) by dilution into BIACORE HBS-EP buffer (0.01 M HEPES, pH7.4, 0.15 M NaCl, 3 mM EDTA, 0.005% surfactant P20) and flowed across the BIACORE chip.
(§3) Affinity (KD) was calculated from the BIACORE traces by fitting on-rate and off-rate curves to traces generated by concentrations of dAb in the region of the KD.

Series [2] deals with Mouse serum albumin (MSA) (Mus musculus, UniProt P07724). The series is classed as binding. The procedure: as §1, §2, §3
For a further series, the target named is Rat serum albumin (RSA) (Rattus norvegicus, UniProt P02770). The series is classed as binding. Here is the method: as §1, §2, §3
Setting [3] is: read-out: GLP-1R BA (10 uM albumin) EC50 (pM) n = 2, presence of 10 uM albumin.
The mark [4] stands for this setting: read-out: GLP-1R BA EC50 (pM) n = 3, absence of albumin.

Sequence of GLP1R (P43220 24-463): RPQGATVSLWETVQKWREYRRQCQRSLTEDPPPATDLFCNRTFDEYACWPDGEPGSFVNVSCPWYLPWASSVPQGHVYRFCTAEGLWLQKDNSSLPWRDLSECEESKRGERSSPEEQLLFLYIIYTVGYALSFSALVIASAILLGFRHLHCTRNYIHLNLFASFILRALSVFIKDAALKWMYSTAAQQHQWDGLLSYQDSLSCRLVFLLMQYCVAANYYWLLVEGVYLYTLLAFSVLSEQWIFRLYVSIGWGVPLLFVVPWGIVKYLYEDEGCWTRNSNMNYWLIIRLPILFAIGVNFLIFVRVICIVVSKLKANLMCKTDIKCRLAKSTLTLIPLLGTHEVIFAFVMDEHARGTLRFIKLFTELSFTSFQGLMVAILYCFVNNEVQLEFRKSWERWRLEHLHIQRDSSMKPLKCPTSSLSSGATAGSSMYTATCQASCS
Sequence of Rat serum albumin (RSA) (P02770 25-608): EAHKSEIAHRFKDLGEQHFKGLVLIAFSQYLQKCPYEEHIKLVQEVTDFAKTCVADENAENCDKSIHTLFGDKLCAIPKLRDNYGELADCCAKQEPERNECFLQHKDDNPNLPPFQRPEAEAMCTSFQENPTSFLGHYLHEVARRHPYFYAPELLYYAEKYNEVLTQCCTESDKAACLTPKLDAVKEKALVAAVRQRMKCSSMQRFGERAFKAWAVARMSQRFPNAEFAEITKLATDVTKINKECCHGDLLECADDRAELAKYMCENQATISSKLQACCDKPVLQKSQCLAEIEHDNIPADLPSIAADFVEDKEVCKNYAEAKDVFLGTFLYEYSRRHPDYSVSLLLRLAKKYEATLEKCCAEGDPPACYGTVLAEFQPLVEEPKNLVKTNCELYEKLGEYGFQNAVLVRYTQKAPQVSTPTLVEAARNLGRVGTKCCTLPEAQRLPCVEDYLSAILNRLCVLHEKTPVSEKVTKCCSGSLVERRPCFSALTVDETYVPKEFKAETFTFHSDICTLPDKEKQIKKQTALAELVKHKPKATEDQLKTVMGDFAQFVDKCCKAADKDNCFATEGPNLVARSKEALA
Sequence of Mouse serum albumin (MSA) (P07724 25-608): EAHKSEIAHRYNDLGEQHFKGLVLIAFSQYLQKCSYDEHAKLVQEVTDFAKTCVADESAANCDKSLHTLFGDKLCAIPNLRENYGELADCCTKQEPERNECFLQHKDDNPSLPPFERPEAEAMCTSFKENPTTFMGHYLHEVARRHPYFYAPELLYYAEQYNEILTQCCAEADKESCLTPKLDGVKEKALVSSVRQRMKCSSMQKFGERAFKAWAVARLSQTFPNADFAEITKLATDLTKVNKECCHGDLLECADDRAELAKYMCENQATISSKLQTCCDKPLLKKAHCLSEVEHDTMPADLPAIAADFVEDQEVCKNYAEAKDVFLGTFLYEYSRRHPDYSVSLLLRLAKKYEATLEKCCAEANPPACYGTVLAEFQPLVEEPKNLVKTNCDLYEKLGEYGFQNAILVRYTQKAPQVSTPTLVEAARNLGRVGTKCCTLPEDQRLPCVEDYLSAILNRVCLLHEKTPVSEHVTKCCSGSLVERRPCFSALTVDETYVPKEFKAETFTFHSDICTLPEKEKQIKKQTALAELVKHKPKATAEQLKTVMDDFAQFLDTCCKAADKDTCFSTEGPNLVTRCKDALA

For orientation: EC50 means the concentration needed to bring the measured effect to its halfway point. For “DAT 0116: Exendin 4 DOM7h-14 fusion, SEQ ID NO 3”, the EC50 was found to be 72 pM in the series with GLP1R (setting [3]) and 12 pM with GLP1R (setting [4]).

Broadly, the Kd is the free concentration of one partner at which half of the binding sites on the other are occupied at equilibrium, for simple one-to-one binding. In the case of “DAT 0117: Exendin 4, helical linker, DOM7h-14 fusion (Table 3), SEQ ID NO 4; Table 2 calls it 2xGLP-1 (7-37) A8G DOM7h-14 fusion”, the Kd in series [1] was 150 nM; in series [2], 130 nM; with Rat serum albumin (RSA), 700 nM. Besides, the figures for the EC50 with GLP1R (setting [3]) and in the series with GLP1R (setting [4]) were 15 pM and 4 pM, respectively.
